The values that follow come from US20070072210A1 (published 2007).

The chains are these.
B1: FLAG-tagged C-terminal BAAT1 (amino acids 176-821) (other)
chain: MRGGAEGQPCLPGGDWPACAQKIMDHVEESLCSAATPKVTQALNVLTTTFGRCQSPWTEALWVRLSPRVACLLERDPIPAAHSFVDLLLCVARSPVFSSSDGSLWETVARALSCLGPTHMGPLALGILKLEHCPQALRTQAFQVLLQPLACVLKATVQAPGPPGLLDGTADDATTVDTLLASKSSCAGLLCRTLAHLEELQPLPQRPSPWPQASLLGATVTVLRLCDGSAAPASSVGGHLCGTLAGCVRVQRAALDFLGTLSQGTGPQELVTQALAVLLECLESPGSSPTVLKKAFQATLRWLLSSPKTPGCSDLGPLIPQFLRELFPVLQKRLCHPCWEVRDSALEFLTQLSRHWGGQADFRCALLASEVPQLALQLLQDPESYVRASAVTAMGQLSSQGLHAPTSPEHAEARQSLFLELLHILSVDSEGFPRRAVMQVFTEWLRDGHADAAQDTEQFVATVLQAASRDLDWEVRAQGLELALVFLGQTLGPPRTHCPYAVALPEVAPAQPLTEALRALCHVGLFDFAFCALFDCDRPVAQKSCDLLLFLRDKIASYSSLREARGSPNTASAEATLPRWRAGEQAQPPGDQEPEAVLAMLRSLDLEGLRSTLAESSDHVEKSPQSLLQDMLATGGFLQGDEADCY
notes: Expressed in 293T cells; co-precipitated with BRCA1 by the anti BRCA1 21A1 antibody and blotted with anti FLAG; not shown: FLAG tag
B2: FLAG-tagged BAAT1 (full length) (other)
chain: MDPECAQLLPALCAVLVDPGQPVADDTCLEKLLDWFKTVTEGESSVVLLQEHPCLVELLSHVLKVQDLSSGVLSFSLRLAGTFAAQENCFQYLQQGELLPGLFGEPGPLGRATWAVPTVRSGWIQGLRSLAQHPSALRFLADHGAVDTIFSLQGDSSLFVASAASQLLVHVLALSMRGGAEGQPCLPGGDWPACAQKIMDHVEESLCSAATPKVTQALNVLTTTFGRCQSPWTEALWVRLSPRVACLLERDPIPAAHSFVDLLLCVARSPVFSSSDGSLWETVARALSCLGPTHMGPLALGILKLEHCPQALRTQAFQVLLQPLACVLKATVQAPGPPGLLDGTADDATTVDTLLASKSSCAGLLCRTLAHLEELQPLPQRPSPWPQASLLGATVTVLRLCDGSAAPASSVGGHLCGTLAGCVRVQRAALDFLGTLSQGTGPQELVTQALAVLLECLESPGSSPTVLKKAFQATLRWLLSSPKTPGCSDLGPLIPQFLRELFPVLQKRLCHPCWEVRDSALEFLTQLSRHWGGQADFRCALLASEVPQLALQLLQDPESYVRASAVTAMGQLSSQGLHAPTSPEHAEARQSLFLELLHILSVDSEGFPRRAVMQVFTEWLRDGHADAAQDTEQFVATVLQAASRDLDWEVRAQGLELALVFLGQTLGPPRTHCPYAVALPEVAPAQPLTEALRALCHVGLFDFAFCALFDCDRPVAQKSCDLLLFLRDKIASYSSLREARGSPNTASAEATLPRWRAGEQAQPPGDQEPEAVLAMLRSLDLEGLRSTLAESSDHVEKSPQSLLQDMLATGGFLQGDEADCY
notes: Transiently expressed in 293T cells; the clone used was IMAGE BC015632; also called FLAG-BAAT1; not shown: FLAG tag
B3: BAAT1 (endogenous, from human cell lysates) (other)
chain: B2 chain
notes: Endogenous cellular protein detected with the anti-BAAT1 antibody; also called endogenous BAAT1; hBAAT1
B4: GST-tagged BRCA1 BRCT domains, breast cancer-associated mutant Met1775Arg (other, UniProt P38398 1560-1863, looked up)
chain: GTPYLESGISLFSDDPESDPSEDRAPESARVGNIPSSTSALKVPQLKVAESAQSPAAAHTTDTAGYNAMEESVSREKPELTASTERVNKRMSMVVSGLTPEEFMLVYKFARKHHITLTNLITEETTHVVMKTDAEFVCERTLKYFLGIAGGKWVVSYFWVTQSIKERKMLNEHDFEVRGDVVNGRNHQGPKRARESQDRKIFRGLEICCYGPFTNRPTDQLEWMVQLCGASVVKELSSFTLGTGVHPIVVVQPDAWTEDNGFHAIGQMCEAPVVTREWVLDSVALYQCQELDTYLIPQIPHSHY
notes: domain: BRCT domains; also called M1775R; not shown: GST tag

Test [1] concerns the target T1, BRCA1 (endogenous, from human cell lysates) (human, UniProt P38398 1-1863).
T1 construct: Endogenous cellular protein immunoprecipitated with anti BRCA1 antibodies C-20 or 21A1; also called breast cancer susceptibility gene 1 protein; endogenous BRCA1
Put plainly: immunoprecipitation with anti BRCA1 21A1 from 293T cells, anti FLAG blot. The source says:
(§1) GST-BRCA1 fragments were precipitated with GSH beads and samples were immunoblotted with anti FLAG antibody. […] After immunoprecipitation with anti BRCA1 21A1 antibody, samples were immunoblotted with FLAG antibody. […] NS: non-specific signals. […] Two different anti BRCA1 antibodies (C-20 and 21A1) and anti ATM antibodies (N-17 and 2C1) were used for the assay.

Test [2] concerns the target T1, BRCA1 (endogenous, from human cell …). Nature of the test: co-immunoprecipitation of endogenous proteins from HeLa cells. As for the experimental part:
as §1
(§2) Co-Immunoprecipitation and GST Pull-Down Assays: HeLa or NMEs cells were lysed for 30 min in 500 ml of lysis buffer (50 mM Tris-HCl pH 7.5, 100 mM NaCl, 0.5% NP-40, 0.5% DOC, 5 mM EDTA, and protease inhibitors: 100 mg/ml PMSF, 2 mg/ml Aprotinin, 2 mg/ml Leupeptin). One milligram of total cell lysates was incubated with 10 mg/ml of ethidium bromide and the primary antibody for 3 h followed by incubation with either Protein A or Protein G agarose beads overnight at 4° C. The immunocomplexes were separated on SDS-PAGE gels and visualized by Western blotting. […] After pulldown with GSH beads, samples were separated in SDS-polyacrylamide gel and visualized by Western blotting.

In test [3] the target is B2. Nature of the test: GST pulldown from co-transfected 293T cells, anti FLAG blot. On the procedure: as §1, §2

Regarding B1, the binding result in test [1] is recorded as “binds”.

As to B2, the binding result in test [1] is “binds”.

Turning to B3, in test [2], the binding result was “binds”.

Regarding B4, in test [3], the binding result is recorded as “no binding”.
